The source of these data is patent US20250074997A1 (PERSONGEN BIOTHERAPEUTICS SUZHOU, published 2025).

B1: phage mono clone 3-E03 (VHH)
VHH: AVQLVDSGGGLVQAGGSLRLSCAASGIRLSSNAMAWYRQAPGKQRGLVALITSDGTTNYVDSVKGRFTISRDNAKNTVYLQMNSLKPEDTAVYYCKREPYLSTRGYWGQGTQVTVSS
notes: the phage coat fusion part is not described
B2: phage mono clone 1-G2 (VHH)
VHH: QSQLAESGGGLVQPGGSLRLSCVASRFSLDAYAIAWFRQAPGKEREGVSCISSIGGRTNYADPVKGRFTISRDNAKNTAYLEMNSLQPEDTAVYYCAAVQRLFGPCLLSGGMDYWGKGTPVTVSS
notes: as for B1
B3: phage mono clone 3-E09 (VHH)
VHH: AVQLVDSGGGLVQPGGSLRLSCAASGFTFSSYAMGWARQVPGKGLEWVSIIYRDGNTYYTDSVKGRFTISRDNAKNTVYLQMNSLKPEDTAVYYCAPVETVAARRRDYWGQGTQVNVSS
notes: as for B1
B4: phage mono clone 3-E10 (VHH)
VHH: B3 VHH
notes: as for B1
B5: phage mono clone 1-G1 (VHH)
VHH: QVQLVESGGGLVQPGGSLRLSCAASGNSLRRYAIGWFRQAPGKEREGVVCISTVGGSSYYVDSVKGRFTISEDNVKNTAYLQMNSLEPEDTAVYYCAAANRLYCPAYGSAGYDYWGQGTQVTVSS
notes: as for B1
B6: phage mono clone 3-H02 (VHH)
VHH: QLTLVESGGGLVQPGGSLRLSCAASEFTLDYYAIGWFRQAPGKEREGVSCISSSDGSTYYADSVKGRFTISRDNAKNTVYLQMNSLKPEDTAVYYCAIGGLLLLRLWERGNYEFDYWGQGTQVTVSS
notes: as for B1
B7: phage mono clone 1-F1 (VHH)
VHH: EVQLAESGGGLVQPGGSLRLSCAASGFTFSSYTMSWVRQAPGKGLEWVSAIDSDGGVTSYADSVKGRFTISRDNAKNTLYLQMNSLKPEDTAVYYCANGGYCSGYGCYPRLLSQGTLVTVSS
notes: as for B1
B8: phage mono clone 1-F9 (VHH)
VHH: QSLLVESGGGLVQPGGSLRLSCAASGFSLDYYAIGWFRQAPGKEREEVSCISSGGGSTNYADSVKGRFTISRDNAKNTVYLQMNSLKPEDTAVYYCAAKRNFMLYLVQCPYEYDYWGQGTQVTVSS
notes: the phage coat fusion part is not described; also called 1-F09
B9: phage mono clone 1-H2 (VHH)
VHH: QVQLVESGGGLVQPGGSLRLSCAASGSTLDYYAIAWFRQAPGKGREGVSCISSSGGRTNYADSVKGRFTVSRDNVKNTVYLQMNSLKPEDTAVYNCAAGGDLSCYGTPTSIWQYDLWGQGTQVTVAS
notes: as for B1
B10: phage mono clone 1-F10 (VHH)
VHH: QVQLVESGGGLVQPGGSLRLSCAASGSILSIRAVGWYRQAPGKQRELVALITSDGTTHYALSVKGRFTISRDNAKTTVYLQMNSLKPEDTAVYYCNREDYARRYWGQGTQVTVSS
notes: as for B1
B11: phage mono clone 1-B4 (VHH)
VHH: QVQLVESGGGLVQPGGSLRLSCAASGFTLDYYAIGWFRQAPGKEREGVSCISSTGGSTNYADSVKGRFTISRDNAKNTVYLQMNSLKPEDTAVYYCAADTHYLTVCYDRLGFDYWGQGTQVTVSS
notes: as for B1
B12: phage mono clone 3-G07 (VHH)
VHH: RLQLVESGGGLVQPGGSLRLSCAVSGKALDYYSIGWFRQAPRKQREGVSCISSSGGSTNYADSVKGRFTISRDNAKDTVYLQMNSLKPEDTADYYCAVVSTVLCGLGIYEYDYWGQGTLVTVSS
notes: as for B1
B13: phage mono clone 3-E04 (VHH)
VHH: QLRLVESGGGLVQPGGSLRLSCAASGFTLDYYDIGWFRQAPGKEREGVSCIGRISGDTDYAESVKGRFTASRDNAKNTVYLQMNSLKPEDTAVYYCAAERRFFGGGCRRSVDNMDSWGKGTLVTVSS
notes: as for B1
B14: phage mono clone 3-E06 (VHH)
VHH: EVQLVESGGGLVQAGGSLTLSCVASASGSILRLNAMGWYRQAPAKQRELVALITRDGSTNYPDSVKGRFTISRDNAKNTVYLQMSSLSPEDTAVYYCYVQNHYSNYWGQGTQVTVSS
notes: as for B1
B15: phage mono clone 1-H8 (VHH)
VHH: QRQLVESGGGLVQPGGSLRLSCAVSEFTLDYYAIGWFRQAPGKEREGVSCISSSGGSTVYADSVKGRFTISADNAKNTVYLQMNSLKPEDTAVYYCAAGSLLLFRLCVSRLYEYDYWGQGTQVTVSS
notes: as for B1
B16: pcDNA3.4-SDAB20-7-26-2-3-H02-hFC (Fc fusion)
chain: B6 VHH
notes: Llama VHH fused in tandem with human IgG1 Fc, expressed in 293 cells, purified on protein A; not shown: human IgG1 Fc from vector pcDNA3.4-hIgG1-Fc2
B17: pcDNA3.4-SDAB20-7-26-2-1-F9-hFC (Fc fusion)
chain: B8 VHH
notes: also called 1-F09; not shown: human IgG1 Fc from vector pcDNA3.4-hIgG1-Fc2
B18: pcDNA3.4-SDAB20-7-26-2-3-E04-hFC (Fc fusion)
chain: B13 VHH
notes: as for B16

T1 sequence (Q03405 23-303 limits assumed): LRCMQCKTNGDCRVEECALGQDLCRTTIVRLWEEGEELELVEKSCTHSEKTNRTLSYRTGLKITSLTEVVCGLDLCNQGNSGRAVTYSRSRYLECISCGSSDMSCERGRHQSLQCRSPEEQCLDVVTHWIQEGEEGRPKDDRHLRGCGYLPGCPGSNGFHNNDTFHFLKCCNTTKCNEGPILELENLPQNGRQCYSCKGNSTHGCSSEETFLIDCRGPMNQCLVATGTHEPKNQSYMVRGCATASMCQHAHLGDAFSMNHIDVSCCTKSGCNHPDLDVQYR

The first assay concerns the target T1, UPAR-His recombinant protein (UniProt Q03405 23-303).
T1 construct: range 23-303; Expressed in 293 cells, purified on Ni-NTA; Biotinylated in the uPA ELISA; also called UPAR-His antigen; biotinUPAR-His; not shown: C-terminal His tag
Description: phage ELISA, plate coated with UPAR-His, HRP-anti-M13. In general terms: ELISA stands for enzyme-linked immunosorbent assay.
With B1, the S/N ratio is above 5.

As for B2, the S/N ratio is above 5.

For B3, the S/N ratio is above 5.

For the molecule B4, the S/N ratio was above 5.

For B5, the S/N ratio was above 5.

Consider B6, for which the S/N ratio is above 5.

For B7, the S/N ratio was above 5.

For B8, the S/N ratio is above 5.

Turning to B9, the S/N ratio is above 5.

As for B10, the S/N ratio is above 5.

On to B11, for which the S/N ratio is above 5.

In the case of B12, the S/N ratio was above 5.

Consider B13, for which the S/N ratio is above 5.

B14: the S/N ratio was above 5.

For the molecule B15, the S/N ratio is above 5.

For the next assay, the target named is T1, UPAR-His recombinant protein. Description: SPR (BiaCore T200), UPAR recombinant protein immobilised on CM5 chip, antibody as mobile phase. Background: Surface plasmon resonance follows binding to a sensor surface in real time, without labels.
The Kd is the equilibrium constant for the complex coming apart. A word on the koff: it is the first-order rate constant of dissociation. The kon is a measure of how fast the partners come together. Regarding B16, the Kd came out at 1.31 nM, the koff was 0.000173 s⁻¹ and the kon was found to be 132000 M⁻¹ s⁻¹.

Consider B17, for which the Kd stood at 1.49 nM, the off-rate constant (koff) was found to be 0.000101 s⁻¹ and the kon was determined as 67600 M⁻¹ s⁻¹.

Turning to B18, the equilibrium dissociation constant (Kd) stood at 22.3 nM, the off-rate constant (koff) came out at 0.00139 s⁻¹ and the on-rate constant (kon) was 62700 M⁻¹ s⁻¹.
